Test results as given in paper PMC10527052, “X-ray Crystallographic Study of Preferred Spacing by the NF-κB p50 Homodimer on κB DNA” (Biomolecules, 2023).

Legend:
[1] = target: T1, NF-kB p50 RHR homodimer (mouse (murine), UniProt P25799 39-363); test: X-ray crystallography; 12-bp spacing, 2.80 A; 2:1 DNA:p50 dimer; second duplex almost unbound, contributes terminal G; Co-crystal structures only; crystallization conditions not in the material; protein stock in 25 mM Tris-HCl pH 7.4, 50 mM NaCl, 1 mM DTT; settings: protein: recombinant; chain copies: 2; blunt; 2 duplexes per p50 dimer, stacked end-to-end
[2] = target: T1, NF-kB p50 RHR homodimer; test: X-ray crystallography; 11-bp spacing, 2.80 A; Co-crystal structures only; crystallization conditions not in the material; protein stock in 25 mM Tris-HCl pH 7.4, 50 mM NaCl, 1 mM DTT; settings: protein: recombinant; chain copies: 2; blunt
[3] = target: the molecule itself; test: crystal structure; p50 RHR homodimer co-crystallised with κB DNA (IL-6 17-mer, 2.80 Å; NGAL 10-mer, 2.80 Å; Test 16-mer, 3.0 Å); hanging or sitting drop vapor diffusion; one complex per asymmetric unit
[4] = target: T1, NF-kB p50 RHR homodimer; test: X-ray crystallography; 11-bp spacing, 3.0 A; Co-crystal structures only; crystallization conditions not in the material; protein stock in 25 mM Tris-HCl pH 7.4, 50 mM NaCl, 1 mM DTT; settings: protein: recombinant; chain copies: 2

B1: NGAL kB DNA 10-mer (dsDNA)
DNA 1: GGGAATGTCC
DNA 2: GGACATTCCC
binding result [1]: binds

B2: IL-6 kB DNA 17-mer (dsDNA)
DNA 1: TGTGGGATTTTCCCATG
DNA 2: CATGGGAAAATCCCACA
binding result [2]: binds

B3: murine NF-κB p50 subunit Rel homology region (amino acid residues 39–363) (domain or fragment, UniProt P25799 39-363, looked up)
chain: GPYLQILEQPKQRGFRFRYVCEGPSHGGLPGASSEKNKKSYPQVKICNYVGPAKVIVQLVTNGKNIHLHAHSLVGKHCEDGVCTVTAGPKDMVVGFANLGILHVTKKKVFETLEARMTEACIRGYNPGLLVHSDLAYLQAEGGGDRQLTDREKEIIRQAAVQQTKEMDLSVVRLMFTAFLPDSTGSFTRRLEPVVSDAIYDSKAPNASNLKIVRMDRTAGCVTGGEEIYLLCDKVQKDDIQIRFYEEEENGGVWEGFGDFSPTDVHRQFAIVFKTPKYKDVNITKPASVFVQLRRKSDLETSEPKPFLYYPEIKDKEEVQRKRQK
notes: 351-363 disordered in the crystals; murine amino acid numbering; also called p50 RHR; NF-κB p50 homodimer; source: E. coli BL21 (DE3), pET11a, purified (SP Sepharose, Superdex 75 size exclusion)
stoichiometry N [3]: 2

B4: Test kB-like DNA 16-mer (dsDNA)
DNA 1: TCAGGGGAATTCCCCTC
DNA 2: AGAGGGGAATTCCCCTG
binding result [4]: binds
